Test system: Escherichia coli TOP10
Assay: shrunken log2 fold change of peptide-encoding DNA abundance (4.5 h post-induction vs induction); higher = less antimicrobial activity (less host growth inhibition)
Conditions: time post-induction: 4.5 h; library: site-saturation at positions 5, 18, 19, 20
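Note: peptides expressed intracellularly from a pBAD plasmid library in pooled LB shake-flask culture, induced with 0.3% L-arabinose, DNA abundance read by NGS, three biological replicates, DESeq2 with apeglm shrinkage.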

Row | Sequence | shrunken log2 fold change
1 | RRIRPRPPRLPRPRPRPFDPPRP | -0.0325
2 | RRIRPRPPRLPRPRPRPFEAPRP | -0.105
3 | RRIRPRPPRLPRPRPRPFEQPRP | -0.281
4 | RRIRPRPPRLPRPRPRPFFDPRP | -0.12
5 | RRIRPRPPRLPRPRPRPFFVPRP | 0.064
6 | RRIRPRPPRLPRPRPRPFHRPRP | -0.0334
7 | RRIRPRPPRLPRPRPRPFIWPRP | -0.271
8 | RRIRPRPPRLPRPRPRPFLGPRP | -0.0178
9 | RRIRPRPPRLPRPRPRPFLHPRP | -0.273
10 | RRIRPRPPRLPRPRPRPFMKPRP | -0.915
11 | RRIRPRPPRLPRPRPRPFPVPRP | 0.00381
12 | RRIRPRPPRLPRPRPRPFPYPRP | -0.0798
13 | RRIRPRPPRLPRPRPRPFQTPRP | -0.242
14 | RRIRPRPPRLPRPRPRPFRHPRP | -0.191
15 | RRIRPRPPRLPRPRPRPFSIPRP | -0.164
16 | RRIRPRPPRLPRPRPRPFSYPRP | -0.192
17 | RRIRPRPPRLPRPRPRPFVSPRP | -0.443
18 | RRIRPRPPRLPRPRPRPFWLPRP | 0.115
19 | RRIRPRPPRLPRPRPRPFWRPRP | 0.0788
20 | RRIRPRPPRLPRPRPRPGCMPRP | 0.179
21 | RRIRPRPPRLPRPRPRPGGLPRP | 0.131
22 | RRIRPRPPRLPRPRPRPGGMPRP | 0.189

Row | Sequence | shrunken log2 fold change
23 | RRIRPRPPRLPRPRPRPGHMPRP | -0.238
24 | RRIRPRPPRLPRPRPRPGKFPRP | -0.385
25 | RRIRPRPPRLPRPRPRPGKWPRP | 0.118
26 | RRIRPRPPRLPRPRPRPGNGPRP | 0.349
27 | RRIRPRPPRLPRPRPRPGQCPRP | -0.0386
28 | RRIRPRPPRLPRPRPRPGRHPRP | -0.166
29 | RRIRPRPPRLPRPRPRPGRKPRP | 0.199
30 | RRIRPRPPRLPRPRPRPGRLPRP | -0.0937
31 | RRIRPRPPRLPRPRPRPGSLPRP | -0.0171
32 | RRIRPRPPRLPRPRPRPGTEPRP | -0.0123
33 | RRIRPRPPRLPRPRPRPGWIPRP | -0.0354
34 | RRIRPRPPRLPRPRPRPGYSPRP | -0.0781
35 | RRIRPRPPRLPRPRPRPHAEPRP | 0.206
36 | RRIRPRPPRLPRPRPRPHCAPRP | 0.228
37 | RRIRPRPPRLPRPRPRPHELPRP | -0.0456
38 | RRIRPRPPRLPRPRPRPHFKPRP | 1.37
39 | RRIRPRPPRLPRPRPRPHGAPRP | 0.641
40 | RRIRPRPPRLPRPRPRPHGEPRP | -0.159
41 | RRIRPRPPRLPRPRPRPHGQPRP | 0.186
42 | RRIRPRPPRLPRPRPRPHGTPRP | -0.0314
43 | RRIRPRPPRLPRPRPRPHGWPRP | 0.274
44 | RRIRPRPPRLPRPRPRPHHSPRP | -0.454

Row | Sequence | shrunken log2 fold change
45 | RRIRPRPPRLPRPRPRPHIPPRP | -0.492
46 | RRIRPRPPRLPRPRPRPHKWPRP | -0.216
47 | RRIRPRPPRLPRPRPRPHLLPRP | -0.0988
48 | RRIRPRPPRLPRPRPRPHMIPRP | -0.98
49 | RRIRPRPPRLPRPRPRPHMMPRP | -0.19
50 | RRIRPRPPRLPRPRPRPHMNPRP | -0.6
51 | RRIRPRPPRLPRPRPRPHMSPRP | -0.27
52 | RRIRPRPPRLPRPRPRPHNEPRP | -0.397
53 | RRIRPRPPRLPRPRPRPHNNPRP | -0.692
54 | RRIRPRPPRLPRPRPRPHNTPRP | -0.481
55 | RRIRPRPPRLPRPRPRPHQCPRP | -0.0701
56 | RRIRPRPPRLPRPRPRPHQWPRP | -0.0599
57 | RRIRPRPPRLPRPRPRPHRNPRP | -0.11
58 | RRIRPRPPRLPRPRPRPHTAPRP | -0.205
59 | RRIRPRPPRLPRPRPRPHTCPRP | -0.123
60 | RRIRPRPPRLPRPRPRPHTVPRP | -0.214
61 | RRIRPRPPRLPRPRPRPHYFPRP | -0.335
62 | RRIRPRPPRLPRPRPRPHYTPRP | -0.516
63 | RRIRPRPPRLPRPRPRPHYYPRP | -0.439
64 | RRIRPRPPRLPRPRPRPIGAPRP | 0.288
65 | RRIRPRPPRLPRPRPRPIGPPRP | 0.162
66 | RRIRPRPPRLPRPRPRPIGYPRP | -0.0758

Row | Sequence | shrunken log2 fold change
67 | RRIRPRPPRLPRPRPRPIHGPRP | -0.00809
68 | RRIRPRPPRLPRPRPRPIHSPRP | -0.0694
69 | RRIRPRPPRLPRPRPRPIKEPRP | -0.00478
70 | RRIRPRPPRLPRPRPRPILMPRP | -0.112
71 | RRIRPRPPRLPRPRPRPINFPRP | -0.168
72 | RRIRPRPPRLPRPRPRPINTPRP | -0.844
73 | RRIRPRPPRLPRPRPRPIQHPRP | -0.053
74 | RRIRPRPPRLPRPRPRPIQIPRP | -0.119
75 | RRIRPRPPRLPRPRPRPIQYPRP | -0.642
76 | RRIRPRPPRLPRPRPRPIRDPRP | -0.015
77 | RRIRPRPPRLPRPRPRPIRVPRP | -0.262
78 | RRIRPRPPRLPRPRPRPISFPRP | -0.101
79 | RRIRPRPPRLPRPRPRPISRPRP | 0.121
80 | RRIRPRPPRLPRPRPRPIVPPRP | -0.208
81 | RRIRPRPPRLPRPRPRPIVSPRP | -0.117
82 | RRIRPRPPRLPRPRPRPIWIPRP | -0.308
83 | RRIRPRPPRLPRPRPRPIYAPRP | -0.0839
84 | RRIRPRPPRLPRPRPRPIYFPRP | -0.205
85 | RRIRPRPPRLPRPRPRPKAIPRP | 0.11
86 | RRIRPRPPRLPRPRPRPKCGPRP | 0.574
87 | RRIRPRPPRLPRPRPRPKCTPRP | -0.0758
88 | RRIRPRPPRLPRPRPRPKFDPRP | 0.163

Row | Sequence | shrunken log2 fold change
89 | RRIRPRPPRLPRPRPRPKGTPRP | 0.0309
90 | RRIRPRPPRLPRPRPRPKHHPRP | -0.228
91 | RRIRPRPPRLPRPRPRPKHQPRP | 0.0315
92 | RRIRPRPPRLPRPRPRPKHWPRP | 0.273
93 | RRIRPRPPRLPRPRPRPKIDPRP | 0.0162
94 | RRIRPRPPRLPRPRPRPKISPRP | -0.0927
95 | RRIRPRPPRLPRPRPRPKKEPRP | 0.0526
96 | RRIRPRPPRLPRPRPRPKKLPRP | -0.0688
97 | RRIRPRPPRLPRPRPRPKKMPRP | 2.39
98 | RRIRPRPPRLPRPRPRPKMKPRP | 1.05
99 | RRIRPRPPRLPRPRPRPKMMPRP | -0.032
100 | RRIRPRPPRLPRPRPRPKNCPRP | -0.238
101 | RRIRPRPPRLPRPRPRPKNMPRP | -0.436
102 | RRIRPRPPRLPRPRPRPKNSPRP | -0.144
103 | RRIRPRPPRLPRPRPRPKPFPRP | 0.129
104 | RRIRPRPPRLPRPRPRPKPRPRP | 0.502
105 | RRIRPRPPRLPRPRPRPKQLPRP | 0.0245
106 | RRIRPRPPRLPRPRPRPKRDPRP | 0.0476
107 | RRIRPRPPRLPRPRPRPKTAPRP | -0.109
108 | RRIRPRPPRLPRPRPRPKTEPRP | -0.217
109 | RRIRPRPPRLPRPRPRPKTGPRP | 0.186
